Source: US20060088531A1 (CAMBRIDGE ENTERPRISE, published 2006)
Values belong to the binder of their own block, whether it stands above or below them.

Assays:
[1] = target: T1, mD1D2-CaM (murine, UniProt P0C191 22-206; P0DP23 2-149, limits assumed); assay: capture ELISA, purified scFv
T1 construct: Residues counted from Q1 (mature protein); also called murine D1D2; mouse D1D2-CaM

[2] = target: T2, hD1D2-CaM (human, UniProt Q9HCN6 21-205; P0DP23 2-149, limits assumed); assay: resonant mirror biosensor, Cell 1
T2 construct: Residues are counted on mature GPVI, not on the precursor; also called rGPVI; recombinant GPVI

[3] = target: T2, hD1D2-CaM; assay: resonant mirror biosensor, from response ratio against ratio of molecular masses
[4] = target: T3, hD1-CaM (human, UniProt Q9HCN6 21-109; P0DP23 2-149, limits assumed); assay: screening ELISA
T3 construct: Residues counted on mature GPVI; also called isolated hD1

binding result [1]: no binding (tested: 10 µg/ml)
ratio of responses 10B12: D1D2-CaM [2]: 0.61
binding ratio (scFv to hD1D2) [3]: 1
B1: scFv 10B12 (scFv, V domains shown)
VH: EVQLVQSGGGVVQPGGSLRLSCAASGFTFSSYGMHWVRQAPGKGLEWVAFIRYDGSNKYYADSVKGRFTISRDNSKNTLYLQMNSLRAEDTAVYYCTDGWAEMATTDDAFDIWGRGTMVTV
VL: DIQMTQSPSTLSASIGDRVTITCRASEGIYHWLAWYQQKPGKAPKLLIYKASSLASGAPSRFSGSGSGTDFTLTISSLQPDDFATYYCQQYSNYPLTFGGGTKLEIK
notes: Human scFv from the CaT (Vaughan) library; also called 10B12 scFv

binding result [4]: no binding
ratio of responses 1C3: D1D2-CaM [2]: 0.63
binding ratio (scFv to hD1D2) [3]: 1
B2: scFv 1C3 (scFv, V domains shown)
VH: QVQLQQSGAEVKKPGESLKISCQASGYSFSSYWIAWVRQMPGKGLELMGIIYPGDSDARYSPSFQGQVTFSADKSINTAYLQWSSLKASDTAMYYCARQGKTGSYYFGAFDVWGQGTMVTVSS
VL: QSVLTQPPSMSAAPGQKVTISCTGTSSDVGGYNYVSWYQQHPGKAPKLMLFEVSHRPSGVSNRFSGSKSDNTASLTISGLQAEDEADYYCSSYTGSSTWVFGGGTKVTVL
notes: Human scFv from the Marks library; also called 1C3 scFv
